# Reference: patent US20110123532A1 (ONCOMED PHARMACEUTICALS, published 2011)
# Where a chain is given by its changes, count along the chain named.
# T1: mouse VEGF (mouse, UniProt Q00731-2 27-190, limits assumed)
# T1 construct: also called mVEGF
# T1 sequence (looked up): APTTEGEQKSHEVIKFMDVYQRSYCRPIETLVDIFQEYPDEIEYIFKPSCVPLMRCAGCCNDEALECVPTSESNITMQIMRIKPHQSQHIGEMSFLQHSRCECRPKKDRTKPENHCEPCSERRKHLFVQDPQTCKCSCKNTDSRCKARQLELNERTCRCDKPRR
# B1: 219R0302 IgG (anti-VEGF antibody reformatted to IgG2) (antibody, V domains shown)
# VH: QVQLKQSGAELVKPGASVKLSCKASGYTFTNYWMHWVKLRPGQGFEWIGDINPSNGGTSYNEKFKRKATLTVDKSSSTAYMQLSSLTSEDSAVYYCTIHYYDNSYAMDYWGQGTSVTVSS
# VL: DIQMTQSPSSLSASVGDRVTITCQASQDISNYVNWYQQKPGKAPKLLIYDASNLQTGVPSRFSGRGSGTHFTFTISSLQPEDLATYYCQQYDDLPPTFGRGTKLEIKR
# notes: Mouse VH from immunised mice paired with a human kappa light chain from a phagemid library; also called 21R0302
# B2: 219R0202 IgG (anti-VEGF antibody reformatted to IgG2) (antibody, V domains shown)
# VH: B1 VH
# VL: DIQLTQSPSSLSASVGDRVTITCRASQGINNHLAWYQQKPGKVPKSLIYAASNLHSGVPSKFSGSGSGTHFTLIISSLQPEDIATYYCQQYDNLPLTFGGGTKVEIKR
# notes: Light chain variant of 219R0302 with the same heavy chain
# B3: FLAG tagged minibody with wild type human IgG2 CH2 and CH3 domains (WT) (other)
# chain: DYKDDDDKCVECPPCPAPPVAGPSVFLFPPKPKDTLMISRTPEVTCVVVDVSHEDPEVQFNWYVDGVEVHNAKTKPREEQFNSTFRVVSVLTVVHQDWLNGKEYKCKVSNKGLPAPIEKTISKTKGQPREPQVYTLPPSREEMTKNQVSLTCLVKGFYPSDIAVEWESNGQPENNYKTTPPMLDSDGSFFLYSKLTVDKSRWQQGNVFSCSVMHEALHNHYTQKSLSLSPGK
# notes: also called WT minibody
# B4: FLAG tagged minibody variant Var1 (13B) (other)
# chain: B3 chain with K155E, K194E
# B5: 219R0202-21M18 single gene bispecific antibody (SGBSP) (bispecific antibody, human IgG2, kappa)
# chain 1: DIQLTQSPSSLSASVGDRVTITCRASQGINNHLAWYQQKPGKVPKSLIYAASNLHSGVPSKFSGSGSGTHFTLIISSLQPEDIATYYCQQYDNLPLTFGGGTKVEIKRTVAAPSVFIFPPSDEQLKSGTASVVCLLNNFYPREAKVQWKVDNALQSGNSQESVTEQDSKDSTYSLSSTLTLSKADYEKHKVYACEVTHQGLSSPVTKSFNRGECGGGGGSGGGGSGGGGSGGGGSGGGGSGGGGSQVQLKQSGAELVKPGASVKLSCKASGYTFTNYWMHWVKLRPGQGFEWIGDINPSNGGTSYNEKFKRKATLTVDKSSSTAYMQLSSLTSEDSAVYYCTIHYYDNSYAMDYWGQGTSVTVSSASTKGPSVFPLAPCSRSTSESTAALGCLVKDYFPEPVTVSWNSGALTSGVHTFPAVLQSSGLYSLSSVVTVPSSNFGTQTYTCNVDHKPSNTKVDKTVERKCCVECPPCPAPPVAGPSVFLFPPKPKDTLMISRTPEVTCVVVDVSHEDPEVQFNWYVDGVEVHNAKTKPREEQFNSTFRVVSVLTVVHQDWLNGKEYKCKVSNKGLPAPIEKTISKTKGQPREPQVYTLPPSREKMTKNQVSLTCLVKGFYPSDIAVEWESNGQPENNYKTTPPMLKSDGSFFLYSKLTVDKSRWQQGNVFSCSVMHEALHNHYTQKSLSLSPGK
# chain 2: DIVMTQSPDSLAVSLGERATISCRASESVDNYGISFMKWFQQKPGQPPKLLIYAASNQGSGVPDRFSGSGSGTDFTLTISSLQAEDVAVYYCQQSKEVPWTFGGGTKVEIKRTVAAPSVFIFPPSDEQLKSGTASVVCLLNNFYPREAKVQWKVDNALQSGNSQESVTEQDSKDSTYSLSSTLTLSKADYEKHKVYACEVTHQGLSSPVTKSFNRGECGGGGSGGGGSGGGGSGGGGSGGGGSGGGGSQVQLVQSGAEVKKPGASVKISCKASGYSFTAYYIHWVKQAPGQGLEWIGYISSYNGATNYNQKFKGRVTFTTDTSTSTAYMELRSLRSDDTAVYYCARDYDYDVGMDYWGQGTLVTVSSASTKGPSVFPLAPCSRSTSESTAALGCLVKDYFPEPVTVSWNSGALTSGVHTFPAVLQSSGLYSLSSVVTVPSSNFGTQTYTCNVDHKPSNTKVDKTVERKCCVECPPCPAPPVAGPSVFLFPPKPKDTLMISRTPEVTCVVVDVSHEDPEVQFNWYVDGVEVHNAKTKPREEQFNSTFRVVSVLTVVHQDWLNGKEYKCKVSNKGLPAPIEKTISKTKGQPREPQVYTLPPSREEMTKNQVSLTCLVEGFYPSDIAVEWESNGQPENNYKTTPPMLDSDGSFFLYSELTVDKSRWQQGNVFSCSVMHEALHNHYTQKSLSLSPGK
# notes: Heterodimer of two single-gene chains, anti-VEGF arm (13A) and anti-DLL4 arm (13B), IgG2; also called 219R0202_21M18 SGBSP; 219R0202-21M18 SGBSP
# B6: 219R0202-21M18 monovalent bispecific antibody (MBSP) with common 21M18 light chain (bispecific antibody, human IgG2, kappa)
# heavy 1: QVQLKQSGAELVKPGASVKLSCKASGYTFTNYWMHWVKLRPGQGFEWIGDINPSNGGTSYNEKFKRKATLTVDKSSSTAYMQLSSLTSEDSAVYYCTIHYYDNSYAMDYWGQGTSVTVSSASTKGPSVFPLAPCSRSTSESTAALGCLVKDYFPEPVTVSWNSGALTSGVHTFPAVLQSSGLYSLSSVVTVPSSNFGTQTYTCNVDHKPSNTKVDKTVERKCCVECPPCPAPPVAGPSVFLFPPKPKDTLMISRTPEVTCVVVDVSHEDPEVQFNWYVDGVEVHNAKTKPREEQFNSTFRVVSVLTVVHQDWLNGKEYKCKVSNKGLPAPIEKTISKTKGQPREPQVYTLPPSREKMTKNQVSLTCLVKGFYPSDIAVEWESNGQPENNYKTTPPMLKSDGSFFLYSKLTVDKSRWQQGNVFSCSVMHEALHNHYTQKSLSLSPGK
# heavy 2: QVQLVQSGAEVKKPGASVKISCKASGYSFTAYYIHWVKQAPGQGLEWIGYISSYNGATNYNQKFKGRVTFTTDTSTSTAYMELRSLRSDDTAVYYCARDYDYDVGMDYWGQGTLVTVSSASTKGPSVFPLAPCSRSTSESTAALGCLVKDYFPEPVTVSWNSGALTSGVHTFPAVLQSSGLYSLSSVVTVPSSNFGTQTYTCNVDHKPSNTKVDKTVERKCCVECPPCPAPPVAGPSVFLFPPKPKDTLMISRTPEVTCVVVDVSHEDPEVQFNWYVDGVEVHNAKTKPREEQFNSTFRVVSVLTVVHQDWLNGKEYKCKVSNKGLPAPIEKTISKTKGQPREPQVYTLPPSREEMTKNQVSLTCLVEGFYPSDIAVEWESNGQPENNYKTTPPMLDSDGSFFLYSELTVDKSRWQQGNVFSCSVMHEALHNHYTQKSLSLSPGK
# light: DIVMTQSPDSLAVSLGERATISCRASESVDNYGISFMKWFQQKPGQPPKLLIYAASNQGSGVPDRFSGSGSGTDFTLTISSLQAEDVAVYYCQQSKEVPWTFGGGTKVEIKRTVAAPSVFIFPPSDEQLKSGTASVVCLLNNFYPREAKVQWKVDNALQSGNSQESVTEQDSKDSTYSLSSTLTLSKADYEKHKVYACEVTHQGLSSPVTKSFNRGEC
# notes: also called 219R0202_21M18 MBSP
# B7: 21M18 (antibody, V domains shown)
# VH: QVQLVQSGAEVKKPGASVKISCKASGYSFTAYYIHWVKQAPGQGLEWIGYISSYNGATNYNQKFKGRVTFTTDTSTSTAYMELRSLRSDDTAVYYCARDYDYDVGMDYWGQGTLVTVSS
# VL: DIVMTQSPDSLAVSLGERATISCRASESVDNYGISFMKWFQQKPGQPPKLLIYAASNQGSGVPDRFSGSGSGTDFTLTISSLQAEDVAVYYCQQSKEVPWTFGGGTKVEIKR
# notes: also called 21M18 antibody; anti-human DLL4 (21M18)
# B8: Homo 13B (21M18) (antibody, human IgG2, kappa, V domains shown)
# VH: B7 VH
# VL: B7 VL
# notes: also called 21M18 HC (with 13B mutation) expressed only with 21M18 LC
# B9: Homo 13A (219R02) (antibody, human IgG2, kappa, V domains shown)
# VH: B1 VH
# VL: B7 VL
# notes: also called 219R02 13A Homo; 219R0202 HC (with 13A mutation) expressed only with 21M18 LC
# Tests used:
# human VEGF [1] = target: T2, human VEGF (human, UniProt P15692-4 27-191); assay: SPR (Biacore), VEGF surface
# T2 construct: Immobilised on a CM5 chip for Biacore; the same name is used for the rhVEGF of the HUVEC assay; also called hVEGF; rhVEGF
# human VEGF [2] = target: T2, human VEGF; assay: SPR (Biacore 2000), recombinant VEGF immobilised on CM5, IgG injected
# Experimental: (§1) IgG affinities were determined using a Biacore 2000 instrument. Briefly, recombinant proteins were immobilized on a CM5 chip using standard amine based chemistry (NHS/EDC). For each Fab and IgG, different concentrations (100-1 nM) were injected over the surface and kinetic data were collected over time. The data was fit using the simultaneous global fit equation to yield affinity constants (KD) for each Fab and IgG.
# mouse VEGF = target: T1, mouse VEGF; assay: as above
# Experimental: as §1
# [3] = target: the molecule itself; assay: non-reducing western blot of conditioned medium of transfected HEK293 cells, anti-FLAG (left, middle) and anti-Fc (right); homodimer of the minibody
# From the text: Var1 contains amino acid 249 Lys to Glu substitution and amino acid 288 Lys to Glu substitution within the CH3 domain. Antibody Var2 contains substitutions of amino acid 249 Lys to Glu substitution, amino acid 286 Tyr to Phe, and amino acid 288 Lys to Glu within the CH3 domain. Antibody Var3 (also referred to as 13A) contains substitutions of amino acid 236 Glu to Lys and amino acid 278 Asp to Lys. HEK293 cells were transiently transfected with combinations of expression vectors as indicated. Non-reducing Western blot analysis was conducted with an anti-FLAG antibody to reveal the size of the secreted antibody products.
# Amino acid substitutions were introduced into either a truncated heavy chain (termed mini-body) containing the linker and CH2-CH3 region of a heavy chain, or a full length antibody heavy chain heavy chain.
# [4] = target: T3, full length human DLL4 on transfected human 293 HEK cells (human, UniProt Q9NR61 27-685); assay: flow cytometry on HEK 293 cells transfected with human DLL4; reference 21M18
# T3 construct: whole, on cells; also called hDLL4 transfected cells; human DLL4 transfected cells
# Experimental: Briefly, Human 293 HEK cells were transfected using Fugene 6 transfection reagent as recommended by the manufacturer (Roche Inc.). Cells were transfected with cDNA expression vector encoding full length human DLL4, as well as a second vector encoding green fluorescent protein, pcDNA-GFP, to mark the transiently transfected cells. […] Cells were then rinsed twice with Staining Medium (HBSS with 2% FCS) and incubated with fluorescent secondary antibody, goat-anti-human IgG H/L-phycoerythrin (PE), at 1:200 dilution in PBS for 1 hour. Cells were then analyzed by flow cytometry using a FACS Caliber instrument (BD Bioscience). Specific SBGSP binding was assessed by determining the presence of cells positive for GFP signal and PE signal.
# [5] = target: T3, full length human DLL4 on transfected …; assay: flow cytometry on human 293 HEK cells transfected with full length human DLL4 and GFP; goat anti-human IgG H/L-PE; MFI against log(nM), non-linear fit
# human VEGF [6] = target: T2, human VEGF; assay: SPR (Biacore), VEGF surface; reference 219R0202 IgG
# [7] = target: T3, full length human DLL4 on transfected …; assay: flow cytometry on human 293 HEK cells transfected with full length human DLL4 and GFP; goat anti-human IgG H/L-PE
# human VEGF [8] = target: T2, human VEGF; assay: Biacore dual targeting assay, high density VEGF surface, antibody first, then DLL4-Fc
# Target sequence in this assay (P15692 other isoform, or with tags, fused parts or gaps limits assumed): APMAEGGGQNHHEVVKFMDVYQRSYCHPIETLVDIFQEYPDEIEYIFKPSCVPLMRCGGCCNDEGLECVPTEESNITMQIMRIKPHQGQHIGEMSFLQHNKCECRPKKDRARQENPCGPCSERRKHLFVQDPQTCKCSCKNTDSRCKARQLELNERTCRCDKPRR
binder,measurement,setting,value
B1,Kd,human VEGF [1],2.1 nM
same,Kd,human VEGF [2],2.1 nM
same,Kd,mouse VEGF,21 nM
B2,Kd,human VEGF [1],1.5 nM
same,Kd,human VEGF [2],1.5 nM
same,Kd,mouse VEGF,23 nM
B3,binding result,[3],binds
B4,binding result,[3],binds
B5,fold loss in DLL4 binding activity compared to 21M18,[4],~5 fold
same,EC50,[5],10.2 nM
same,fold weaker binding affinity than 219R0202,human VEGF [6],~5 fold
same,Kd,human VEGF [1],6.9 nM
B6,fold loss in DLL4 binding activity compared to 21M18,[4],~3 fold
same,EC50,[5],6.2 nM
same,fold weaker binding affinity than 219R0202,human VEGF [6],~14 fold
same,Kd,human VEGF [1],21 nM
B7,EC50,[5],2 nM
B8,EC50,[5],7.7 nM
B9,binding result,[7],no binding (tested: log(nM) about 1.8 (about 60 nM))
same,binding result,human VEGF [8],binds
